Measurements reported in a protein production outcome set (Wang et al. 2014).

Experiment: label from the status in PepcDB records
In the case of “MAQGNPLTPEEIELLHAGDEENDNTDTLMVIRVPNDGSSATAISIPRDTYVHDENVGNLKINGVYRAYKNRKASELVNSGESDQKHIDELSKEAGRKALISSISDLTGVTVDHYAEVGLLGFVLLTNAVGGVDVCLNNDVYDEFSGADFKAGQQTLRDGQALAFVRQRHGLPRGDLDRIVRQQAFMASLVAKVLSSGTLTNPSKLSDLGEAVSRSVVIDKNWDVMSFANQLQNLAGGNVKFNTIPVTSIDGVGDYGESVVTVDKNQVHQFFDRLLNGNNGEETPTSDSEAPAENPHTSTTIDVLNATSTTGLASQVAGHLSAKHYTIGNIGNALEGMYHESQIVAADPNNEAVKAIAAELGGLPITQRNDLEHHHHHH”, the protein production is reported as “failed”. In the case of “MAQKMTGALVFDERTDRYDIRFDLNSYYGGLHCGECFDVFVRGKWKPTRIEYGDNWYLVGIRAEDLNGLRVRI”, the protein production is reported as “failed”. With “MAQPKFVVAEIVEMEDHPDSDHLHICKVNVGFADPVQIVCGAPNAALGLKTVAALPGAMMPNGSLIFPGALRGVQSYGMLCSALEHHHHHH” the protein production was “failed”. In the case of “MAQPSTTYKFELNLTDLDRNVYESVKQTIARHPSETEERMAVRLLAYALWYNENLSFGRGLSDVDEPALWEKSLDDRVLHWIEVGQPDADRLTWCSRRTERTSLLAYGSLRVWEGKVVSAVKNLKNLSIAAVPQEVLETLATDMPRSIKWDVMISEGTVFVTDDRGQHEVQLQWLLGERG”, the protein production is reported as “not failed”. For “MAQQFIDIGANLTDDNYFGNYHGKHYHEEDIDVVLQRAERNGLSHIIITSGCLNDFKKAIEIINKYQNLTNIKLVTTIGVHPTRTNELKQEGYLDELLLLCEKNIDKVVAIGEIGLDYERLQFSDKETQLSGYRTLSILHQKYPYLPFFFHCRKSWSDLCQLNKELGYNGCKGVVHCFDGTEEEMNQILNEGWDIGVTGNSLQSIELLNVMKQIPIERLHIETDCPYCGIKKTSAGFKYLKEKDFGVKVEKYQRNKYVQRRNEPSNIIDIAIIMSSIKHISLFEFVNKVYSNSMNMYFPTMN”, the protein production was “not failed”. For “MAQQWSLQRLAGRHPQDSYEDSTQSSIFTYTNSNSTRGPFEGPNYHIAPRWVYHLTSVWMIFVVIASVFTNGLVLAATMKFKKLRHPLNWILVNLAVADLAETVIASTISVVNQVYGYFVLGHPMCVLEGYTVSLCGITGLWSLAIISWERWMVVCKPFGNVRFDAKLAIVGIAFSWIWAAVWTAPPIFGWSRYWPHGLKTSCGPDVFSGSSYPGVQSYMIVLMVTCCITPLSIIVLCYLQVWLAIRAVAKQQKESESTQKAEKEVTRMVVVMVLAFCFCWGPYAFFACFAAANPGYPFHPLMAALPAFFAKSATIYNPVIYVFMNRQFRNCILQLFGKKVDDGSELSSASKTEVSSVSSVSPA”, the protein production was “failed”. In the case of “MAQRVANIMKPFATGLVVGKFAPLHCGHEKLINTALAQCEELFIISYSVPEMPDCEPEKRLTWLQVRFPQATILVLTPELVARYNLPAIPHNDADADIHRHYVATLCLQILRCRPHAVFTAEDYGDGFANVLARRFAQPVEHVRMARPVGDEAPSGTLIRSDVHRYRYMLANDVYYSFVRRICLLGGESTGKSTLSKALADGLDTVYVAEFGRDYWEEKNGILTADDLLHIACEQVRREQQAEANHYLICDTSPLTTLFYALDQYGHAPQELHQLAEREYSLVVLCGAEFPFVQDGTRQGEVFRARQQVWYEQELSRRNIPYLSVSGPLQERVEQILRQLPD”, the protein production is reported as “failed”. For “MAQSETVERILDAAEQLFAEKGFAETSLRLITSKAGVNLAAVNYHFGSKKALIQAVFSRFLGPFCASLEKELDRRQAKPEAQHATLEDLLHLLVSQAMAVKPRSGNDLSIFMRLLGLAFSQSQGHLRKYLEEVYGKVFRRYMLLVNEAAPKLPPIELFWRVHFMLGAAAFSMSGIKALRAMAETDFGVNTSTEQVMHLMVPFFAAGMRAESGIDDPLLAGAQLRPRNKTPAKA”, the protein production was “not failed”. In the case of “MAQSINITELNLPQLEMLKNQLDQEVEFLSTSIAQLKVVQTKYVEAKDCLNVLNKSNEGKELLVPLTSSMYVPGKLHDVEHVLIDVGTGYYVEKTAEDAKDFFKRKIDFLTKQMEKIQPALQEKHAMKQAVMEMMSQKIQQLTALGAAQATVKA”, the protein production is reported as “failed”. For “MAQTKRFVIAGGGRVGKQTAENLVDQGHDVLLIESDEERVEALSDAYIGPVIHGDATRPSILQQADLAEADAIAALTDEPGTNLAICMEAQQYAPSIRTIARAETEADHEYDEVVDATLLPEYLGGDHAADILTGEDIRTLVYPTADLDIIKVTVAPSAPVAGRRLDEIALPSGSLLISTADRTELAGADTVLKAEEQYILAVETDVVDEVLKLMRG”, the protein production was “failed”. For “MARAPARARGSRGLNCLAGSQQTRIPAQETDDLFTTCQFGETEEDTAVEEAETIDCLSIPKQKLAQSQKKINQFINEKMSTKANKELIRCFILSQIVFGKEHWKCAQALANLAYGYLTLRGLPAQAKKHAESARNTLLTWKRNTTSDKEKKEILETLVILYYTLGIAWLLQNHGKQAYIHLQKAQRNMKELKELNNGSIYEIQVSDKDLTIALGRASLAMHRMHLALAYFEKAICGVILAKGHDTSDLISLYEEIAQIEQLRKNHEQAIQYLQQAYSISVSSFTEVSPQTAEASALLAKAYAMSGESQHRDAVEIYFIRSISTYQTLGSEDYETLTTIEDFCTWLIQNGEKQEAYRLLKSTLNSCTFGDCGKKVAETFYNMGSICFAKGELREAIALLRKCLMIQSLIYGSEHTKSIETKSLLSLLQRPISRFPRTAEQSHGVVARAQMSKISAGMALSASASHWNNQSQMSWDSACIPMGASVLYDTSFRNAVKYSLDCHGQQPEFLSCGGSAS”, the protein production was “failed”. For “MARDALTDALTVGELRRRVHALVLGKRQRVYSGAMFLVEVVHHPELSAMLGLEDNKLLLAMIAQRLQMQSDYFQVARHSSDSFMVWAPDLDPRSARDVAPEVLDALSQPYELRGQPLIVGFRLSGALYAQHGACFDELERSLHIAMLHLDESAGAAWNMFEPSMLEHQRHYQGLEHHHHHH”, the protein production was “failed”. With “MARESRTNPRAAGRNALGARRFWFVSLAGIVLASGYDILQALQGSAAAAQRLVVPVLLLLWLYRGSDWARWILMVMLLGFGVLNMYLGTGMLRYGVQNWLHIYVFSAFMVATGLYLALAGKDFARYRSHVAARRARRAASQG” the protein production was “failed”. In the case of “MARFDRYLLSQLVALFGFFSLVLVLVYWINRAVGLFDDLISDGQSALVFLEFSLLALPNVIRLVLPLSAFAATIYVVNRLSQESELVVMQATGFSAFRLARPVIWFGLIVALMMIVLMNLLVPASRATLSARSAEISQNATARFLRDGEFLHPADGVTLYIREVTETGELRDLLLVDDRDPARSTAYTARRALLVRTDTTPKLLMIDGSAQTLTREGRRLELTRFDDVTYDLGAFMTGSGPKRRVLEELPTMTLLAPTAEVLEETRSTRAAALYEGHSRIGQPFLGFASSLIGFAALLLGSFSRFGLWWQILFAVLLLIVVQTINVAASGVGVTDEQLWPLAYAAPVTGFAIGILLLWIGQRPRRLRRALNGIFAS”, the protein production is reported as “failed”. With “MARHRDRAAGMNMAMMRLRREDPRVVGSFRLHRRLGAGGMGVVYLGSDKKGQRVALKVIRPDLAEDQEFRSRFAREVSAARRIRGGCTARLVAADLEADRPWFATQYVPGPSLHDKVADGGPLGAADVAAVGAALSEGLVAVHEAGVVHRDLKPSNILLSPKGPRIIDFGIAWATGASTLTHVGTAVGSPGFLAPEQVRGAAVTPATDVFSLGATLAYASMGDSPFGHGSSEVMLYRVVHEEAQLHGVPDALAPLVRACLAKDPEERPSTLQLSLRLKEIAAREAQGMADVRPPAPRSGEADVPTGRLADTYPERAQRRPQGRPGPQGTPAPRGTSASRGSAPRGSVPSRGGAPSRGGTPSRGGTPSRGGTSSRGGGTGARSGSRPTPTRDTTGRNSSRNDGGRPAPRGGSGRTAPRTTGTGWRRPANPRLLRQRLFVFVVVTLLVALGIAAAQGCQGPARGLGDERGGGVRATQRDQVDPPGGLPEPRTPGR” the protein production was “failed”. With “MARKCEITGKKTMFGNNVPRKGLAKKKGGAGQHIGVKTKRTFKVNLINKKFFIPNLGRSVSIKVSANALRSISKIGLDAFLKKNCKKIENFLLEHHHHHH” the protein production was “failed”. With “MARKVILFIAMSIDNYIADDQGAVDWLEKNVHGTESDDSYEKMYSKIDTVIMGRTTYEQVTQKLSPEKYVYADRQTYIVTSHLGEDTDKIKYWKQSPVELVKRIQKEKGKDVWIVGGAKLIDPLVQANLIDTYILTTVPIFLGSGIRLFDRLEEQVPVRLIDVYQKNELVYSIYQRG” the protein production was “not failed”. With “MARLGKKSRNGAFWAKALERAHLGVWDWDLRSGDCFYSATWARMLGYEEDELANTSDLWLQLTHPDDRERALASGDRHIAGLTDAIETELRLKHKLGHWVWVLDRGGIVESGADGRPLRLMGVQTDISKQKAAEAALEQVTMRFRLALAASGTGIWHYDIATHKSYWDARTREMFGVVADADEVAADLWHSFLHPDDKEATERAHWPSPGSNGVTASQYRIVKRDGEIRHIESLVRYVAAAGAAGQILGTVRDITEDKLREQELAFAARHDALTGLWNRAAFDRLLADHIAKGVPLAVFYVDLDYFKALNDFAGHAAGDLALKSVAAGIGRCLPPSAHAARLGGDEFALLVPHCDAAQAERLAAAILAAVRSADLGLAATARRLAASIGIAIVNDRATTVADALACADDACYAAKAAGRDRFAVFSAEAATGGLNAARLAADTVDAMEDGRLKLFGQEIHRLGRPWQENRHVEVLARLVGRGGKLIPPSEFIPAAERFGIAARLDRWIIRTALSRHGAAMKSGAITLGFNLSAQTLSDPGLWDFVDSIIEETGAPHSGIGFEITETAAVTNFDAAETFVRKARERRCKVSLDDFGAGMSSFEYLRRFPVDAIKIDGSFIEHMAESRFDREIVSAISGIARSVGCTVVAEKIEQAETLGILQTMGVDFGQGFLLHRPEPLEQIVARAAGPARAAPARKAS” the protein production was “failed”. For “MARPKSKTKKILFAVEIIVLLLFIGGLYVYGQLNSKLDKINQPVLDDSKIKVNQEVQDSIDSQESTLTGYTTYALFGIDHRDKNTALGGENSDTIIIASVNNDTKDVKLVSVYRDTLLNLGNDTYSKANAAYAYGEAEQAITMLNTNLDLNISEYATVNFNALTTIIDDLGGLDMDMSYAEIVHMNNYCVETSEETGKDYTPIELPDRPDDIEAVQYHYHLNGVQATSYCRIRYTASLDMGRTERQRRVIQMIVSKAKSAGLGKIFKIMDDVFPMVTTSMTKDEILQLLPTLIGYSVDDTTGFPTSYKFSNVKGSIIVPTTLETNVIELHKFLYGDEAYTPSATVKANSEKILEIVGGESSLDDKQATVEENTTNDTVIFEKNGSGWSDTSSDYGSDSDSSGGGDYSGDETDNSGGSSSGGGDYSNDGSDNSGGDSSGGEDYEGPTTPEPDYGGDDNGGGDTGGDESGGGDTGGDESGGGDIVDEGSGDDSGAAAEATGTPDAA”, the protein production was “failed”. In the case of “MARPRKPTNVLELTGAFKKDPQRRREDAEPVGELTAPPAHINGAVLHAWKEIAKYAPRDVLTNSDRLSLELAANLLAQFRNDPLDFPAAKLVRLEAMLGKFGMTPADRSKVGGGKKDAPKGNAFAEL”, the protein production is reported as “failed”. With “MARRDISGAVDFAYLEGFAAGDFAVVDEVLALFREQAALWAPMLDPTHPGWKDAVHTVKGAARGVGAFNLGEVCERCEAGQESLEGVRTALDAALLDIAAYAHEQALRSLKG” the protein production was “not failed”. In the case of “MARRWTPQRFVMLRRVRVVICVTTVTLASVLAFGVGARKTVALTVNGETTTVTTYAMSVDRLLQEQQVKVKTHDLVESTSSGTLQNHSVVTVRSAYQTTVTIDGQEVPFWTVATSADQLLGFFEANEAEASKITVNIDNVYNKLTGGLVINQNGPVTVIADGKSSVSPNGKLPAASILDSKGIILNKEDRVSVEKDNGETILRVQRVTHDEQTRTKTVPHGTQTIIDASLQPGEAVVRQEGEDGEIQQTYDVTYVDGVEESEKLINEVTTKIAIDQIIAVGPEKTESSDADNADNGQADSGSNDSDSSKSDKKDESDKKDSDSTDKKNDSSEKNDSTSTPTTEPTQTPTPTPTPTQQQQQTQTTTNPSDGCRLYHPSAAQAQTYAAGAAAQYGWTGQHWTNLVKLWNRESSWLWYSENASSGAYGIPQSLPGSKMASFGANWRDDAAVQIDWGLNYIAQRYGNPTKAREHSEQYGWY”, the protein production is reported as “failed”.
